From US20210107971A1 (UCB, published 2021)
Positions count from the first letter of the chain named. Numbers in names are those of the source.

B1: 6470 rabbit Fab with heavy chain mutation H31K (Fab, V domains shown)
VH: QSVEESGGRLVTPGTPLTLTCTVSGIDLSSKDMYWVRQAPGKGLEYIGAIYASGSTYYASWAKGRFTISKTSTTVDLKMTSLTTEDTATYFCARIHYGNSGGLWGQGTLVTVSS
VL: AIVMTQTPSSKSVAVGDTVTINCQASQSVYKNNYLAWFQQKPGQPPKQLIYGASTLASGVPSRFKGSGSGTQFTLTISDVVCDDAATYYCAGYKGGRNDGFAFGGGTEVVVKR
B2: 6470 rabbit Fab with heavy chain mutation S55N (Fab, V domains shown)
VH: B1 VH with K31H, S55N
VL: B1 VL
B3: 6470 rabbit Fab with light chain mutation Y30W (Fab, V domains shown)
VH: B1 VH with K31H
VL: B1 VL with Y30W
B4: 6470 rabbit Fab with heavy chain mutation H31R (Fab, V domains shown)
VH: B1 VH with K31R
VL: B1 VL
B5: 6470 rabbit Fab with heavy chain mutation N99W (Fab, V domains shown)
VH: B1 VH with K31H, N99W
VL: B1 VL
B6: 6470 rabbit Fab with light chain mutation N33R (Fab, V domains shown)
VH: B1 VH with K31H
VL: B1 VL with N33R
B7: 6470 rabbit Fab with light chain mutation N33K (Fab, V domains shown)
VH: B1 VH with K31H
VL: B1 VL with N33K
B8: 6470 rabbit Fab with heavy chain mutation N99Q (Fab, V domains shown)
VH: B1 VH with K31H, N99Q
VL: B1 VL
B9: 6470 rabbit Fab with heavy chain mutation N99H (Fab, V domains shown)
VH: B1 VH with K31H, N99H
VL: B1 VL
B10: 6470 rabbit Fab with heavy chain mutation N99R (Fab, V domains shown)
VH: B1 VH with K31H, N99R
VL: B1 VL
B11: 6470 rabbit Fab with heavy chain mutation N99K (Fab, V domains shown)
VH: B1 VH with K31H, N99K
VL: B1 VL
B12: 6470 rabbit Fab with heavy chain mutation S53N (Fab, V domains shown)
VH: B1 VH with K31H, S53N
VL: B1 VL
B13: 6470 rabbit Fab with heavy chain mutation H31Q (Fab, V domains shown)
VH: B1 VH with K31Q
VL: B1 VL
B14: VR6470 gL3; gH23-S56N-N102H (antibody, human IgG4 S228P, kappa, V domains shown)
VH: EVQLLESGGGLVQPGGSLRLSCAVSGIDLSSHDMYWVRQAPGKGLEYIGAIYASGNTYYASWAKGRFTISRDNSKNTVYLQMNSLRAEDTAVYYCARIHYGHSGGLWGQGTLVTVSS
VL: DIQMTQSPSSLSASVGDRVTITCQASQSVYKNNYLAWFQQKPGKAPKQLIYGASTLASGVPSRFSGSGSGTQFTLTISSLQPEDFATYYCAGYKGGRNDGFAFGGGTKVEIKR
notes: Full-length humanized human IgG4P
B15: VR6470 gL3; gH36-S56N-N102H (antibody, human IgG4 S228P, kappa, V domains shown)
VH: B14 VH with N73S, V78L
VL: B14 VL
notes: as for B14
B16: VR6470 gL3-N33R; gH36-S56N-N102H (antibody, human IgG4 S228P, kappa, V domains shown)
VH: B14 VH with N73S, V78L
VL: B14 VL with N33R
notes: as for B14
B17: AS109-118 (peptide)
peptide: Ac-QEGILEDMPV-NH2
notes: Synthetic peptide of human alpha synuclein
B18: AS119-128 (peptide)
peptide: Ac-DPDNEAYEMP-NH2
notes: as for B17
B19: AS104-113 (peptide)
peptide: Ac-EEGAPQEGIL-NH2
notes: as for B17
B20: AS113-122 (peptide)
peptide: Ac-LEDMPVDPDN-NH2
notes: as for B17
B21: AS127-136 (peptide)
peptide: Ac-MPSEEGYQDY-NH2
notes: as for B17
B22: AS111-120 (peptide)
peptide: Ac-GILEDMPVDP-NH2
notes: as for B17
B23: 6470gL3gH46 (antibody, V domains shown)
VH: B14 VH with V24A, N56S, H102N
VL: B14 VL
B24: 6470gL6gH23 (antibody, V domains shown)
VH: B14 VH with N56S, H102N
VL: B14 VL with Q48S
B25: 6470gL3gH50 (antibody, V domains shown)
VH: B14 VH with V24A, N56S, N73S, V78L, H102N
VL: B14 VL
B26: 6470gL8gH23 (antibody, V domains shown)
VH: B14 VH with N56S, H102N
VL: B14 VL with Q72D
B27: 6470gL6gH36 (antibody, V domains shown)
VH: B14 VH with N56S, N73S, V78L, H102N
VL: B14 VL with Q48S
B28: 6470gL3gH35 (antibody, V domains shown)
VH: B14 VH with N56S, R71K, N73S, R97K, H102N
VL: B14 VL
B29: 6470gL3gH26 (antibody, V domains shown)
VH: B14 VH with I48V, N56S, R71K, N73S, H102N
VL: B14 VL
B30: 6470gL3gH27 (antibody, V domains shown)
VH: B14 VH with G49S, N56S, R71K, N73S, H102N
VL: B14 VL
B31: 6470gL8gH36 (antibody, V domains shown)
VH: B14 VH with N56S, N73S, V78L, H102N
VL: B14 VL with Q72D

Molecular target: T1, recombinant full-length human alpha synuclein monomer (human, UniProt P37840 1-140)
Assay: SPR, Biacore T200, as in Example 3; Fab injected;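 further: ligands amine-coupled on CM5 chip flow cells, HBS-EP+ running buffer, kinetic data fitted with 1:1 model allowing local bulk contribution and global Rmax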
Experimental: (§1) Interaction kinetics were determined by using surface plasmon resonance technology on a Biacore T200 instrument. Three different ligands including recombinant full-length human alpha synuclein monomer, purified recombinant human alpha synuclein fibrils, and purified recombinant mouse alpha synuclein fibrils, prepared as described herein, were each immobilized on three different flow cells of a CM5 chip surface using amine-coupling chemistry. The three ligands were prepared in 10 mM NaAc, pH 3.5, and immobilized onto separate flow cell surfaces to reach an immobilization level of about 30 response units (RU) for alpha synuclein monomer, about 40 RU for human alpha synuclein fibrils, and about 300 RU for mouse alpha synuclein fibrils respectively, at a flow rate of 10 μI/min. The buffer HBS-EP+(GE healthcare Bio-Sciences AB) was used as running buffer for both ligand immobilization and kinetics assay. […] The surface was regenerated by one injection of 50 mM HCl for 90 s at 10 μI/min, and another injection of 50 mM HCl for 60 s at 10 μI/min. The data were analyzed using the Biacore T200 evaluation software (version 3.0) using the bivalent analyte model with assumed no bulk contribution (RI=0) and global Rmax for IgG format, and 1:1 model with flexible bulk contribution (local RI) and global Rmax.

| Binder | Kd | koff | kon |
| --- | --- | --- | --- |
| B1 | 152 nM | 0.938 s⁻¹ | 6.17e+06 M⁻¹ s⁻¹ |
| B2 | 1.9 nM | 0.0191 s⁻¹ | 1.39e+07 M⁻¹ s⁻¹ |
| B3 | 50.4 nM | 0.151 s⁻¹ | 2.99e+06 M⁻¹ s⁻¹ |
| B4 | 1660 nM | 0.44 s⁻¹ | 265000 M⁻¹ s⁻¹ |
| B5 | 61.3 nM | 0.566 s⁻¹ | 9.22e+06 M⁻¹ s⁻¹ |
| B6 | – | 0.0799 s⁻¹ | 1.92e+07 M⁻¹ s⁻¹ |
| B7 | 15.2 nM | 0.0433 s⁻¹ | 2.84e+06 M⁻¹ s⁻¹ |
| B8 | 1310 nM | 0.493 s⁻¹ | 375000 M⁻¹ s⁻¹ |
| B9 | 0.7 nM | 0.00745 s⁻¹ | 1.33e+07 M⁻¹ s⁻¹ |
| B10 | 16.9 nM | 0.17 s⁻¹ | 1.22e+07 M⁻¹ s⁻¹ |
| B11 | 23.9 nM | 0.189 s⁻¹ | 7.89e+06 M⁻¹ s⁻¹ |
| B12 | 1130 nM | 0.0517 s⁻¹ | 45600 M⁻¹ s⁻¹ |
| B13 | 23.1 nM | 0.185 s⁻¹ | 8e+06 M⁻¹ s⁻¹ |

Molecular target: T2, purified recombinant human alpha synuclein fibrils (human, UniProt P37840 1-140)
Assay: SPR, Biacore T200, as in Example 3; Fab injected;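 further: ligands amine-coupled on CM5 chip flow cells, HBS-EP+ running buffer, kinetic data fitted with 1:1 model allowing local bulk contribution and global Rmax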
Experimental: as §1

| Binder | Kd | koff | kon |
| --- | --- | --- | --- |
| B1 | 46.7 nM | 0.423 s⁻¹ | 9.06e+06 M⁻¹ s⁻¹ |
| B2 | 1.4 nM | 0.013 s⁻¹ | 9.2e+06 M⁻¹ s⁻¹ |
| B3 | 18.8 nM | 0.0895 s⁻¹ | 4.75e+06 M⁻¹ s⁻¹ |
| B4 | 62.3 nM | 0.373 s⁻¹ | 5.98e+06 M⁻¹ s⁻¹ |
| B5 | 25.3 nM | 0.134 s⁻¹ | 5.27e+06 M⁻¹ s⁻¹ |
| B6 | 2.9 nM | 0.0289 s⁻¹ | 9.98e+06 M⁻¹ s⁻¹ |
| B7 | 7.1 nM | 0.0498 s⁻¹ | 6.93e+06 M⁻¹ s⁻¹ |
| B8 | 42.4 nM | 0.425 s⁻¹ | 1.03e+07 M⁻¹ s⁻¹ |
| B9 | 0.4 nM | 0.00401 s⁻¹ | 6.2e+06 M⁻¹ s⁻¹ |
| B10 | 15.3 nM | 0.154 s⁻¹ | 1.89e+07 M⁻¹ s⁻¹ |
| B11 | 20.7 nM | 0.207 s⁻¹ | 1.58e+07 M⁻¹ s⁻¹ |
| B12 | 49.6 nM | 0.286 s⁻¹ | 5.75e+06 M⁻¹ s⁻¹ |
| B13 | 12.4 nM | 0.0972 s⁻¹ | 7.83e+06 M⁻¹ s⁻¹ |

Molecular target: T1, recombinant full-length human alpha …
Assay: SPR, Biacore T200, as in Example 3; full-length IgG4P injected
Experimental: as §1

| Binder | Kd | koff | kon |
| --- | --- | --- | --- |
| B14 | 4.62 nM | 0.00445 s⁻¹ | 966000 M⁻¹ s⁻¹ |
| B15 | 4.1 nM | 0.00488 s⁻¹ | 1.19e+06 M⁻¹ s⁻¹ |
| B16 | 1.31 nM | 0.00648 s⁻¹ | 4.97e+06 M⁻¹ s⁻¹ |

Molecular target: T2, purified recombinant human alpha …
Assay: as above
Experimental: as §1

| Binder | Kd | koff | kon |
| --- | --- | --- | --- |
| B14 | 0.068 nM | 7.08e-05 s⁻¹ | 1.04e+06 M⁻¹ s⁻¹ |
| B15 | 0.059 nM | 7.44e-05 s⁻¹ | 1.25e+06 M⁻¹ s⁻¹ |
| B16 | 0.053 nM | 0.000126 s⁻¹ | 2.39e+06 M⁻¹ s⁻¹ |

Molecular target: T2, purified recombinant human alpha …
Assay: cell-based or functional assay

| Binder | IC50, inhibition of alpha synuclein aggregation induced by fibrils in HEK293F cells expressing alpha synuclein (% pSer129+ cells) |
| --- | --- |
| B14 | < 5 nM |
| B15 | < 5 nM |
| B16 | < 5 nM |

Molecular target: T3, monoclonal 6470 rabbit Fab
T3 construct: Fab heavy chain entry carries a C-terminal His tag
Assay: competitive SPR: 6470 Fab pre-incubated with peptide, injected over immobilised human alpha synuclein monomer and fibrils; %inhibition
Experimental: Recombinant human alpha synuclein monomer and pre-formed alpha synuclein fibrils were immobilized on a CM5 chip using a Biacore 3000 instrument (GE Healthcare). Following activation of the carboxymethyl dextran surface by injection of 100 μl of a fresh 1:1 (v/v) mixture of 50 mM N-hydroxysuccimide and 200 mM 1-ethyl-3-(3-dimethylaminopropyl)-carbodiimide at a flow rate of 10 μl/min HBS-EP (GE Healthcare) as running buffer, coupling was achieved by injecting 100 μl of monomer and fibrils, at 5 μM in 10 mM acetate pH 5.0, over separate flow cells. A reference flow cell was activated in the same manner and then all flow cell surfaces were deactivated with a 50 μl pulse of 1 M ethanolamine HCl pH 8.5.
Peptide solutions were prepared in running buffer at 100 μM and a peptide blank control prepared as a 1 in 100 dilution of DMSO in running buffer. […] Sensograms were recorded for each sample by injecting 30 μl of the mixture at 10 μl/min and recording a report point 5 seconds before the end of the injection. […] Control cycles were alternated with peptide cycles.

| Binder | binding result |
| --- | --- |
| Ac-EGYQDYEPEA-OH (peptide, UniProt P37840 131-140, looked up, synthetic 10-mer peptide) [131-140] | no binding |
| B17 | no binding |
| B18 | no binding |
| Ac-SEEGYQDYEP-NH2 (peptide, UniProt P37840 129-138, looked up, synthetic 10-mer peptide) [129-138] | no binding |
| Ac-PVDPDNEAYE-NH2 [AS117-126] | no binding |
| B19 | no binding |
| B20 | no binding |
| B21 | no binding |
| B22 | no binding |

Molecular target: T2, purified recombinant human alpha …
Assay: affinity for human alpha synuclein fibrils, IgG4P; method not given

| Binder | Kd |
| --- | --- |
| B23 | 0.316 nM |
| B24 | 0.547 nM |
| B25 | 0.58 nM |
| B26 | 0.246 nM |
| B27 | 0.377 nM |
| B28 | 5.28 nM |
| B29 | 0.3 nM |
| B30 | 22.3 nM |
| B31 | 0.198 nM |
